According to US20260184815A1 (published 2026):
Residue numbers refer to the chain shown, from its start.

B1: M209-C12 (Fab, V domains shown)
VH: EVQLLESGGGLVQPGGSLRLSCAASGFTFSHYLMTWVRQAPGKGLEWVSYISPSGGHTIYADSVKGRFTISRDNSKNTLYLQMNSLRAEDTAVYYCARVGRGIAARSRTSQLDYWGQGTLVTVSS
VL: DIQMTQSPGTLSLSPGERATLSCRTSQFVNSNYLAWYQQTPGQAPRLLIYGASSRATGIPDRFSGTGYGTDFTLTISRLEPEDYGTYYCQQSSRTPWTFGQGTRVEIK
B2: M209-D03 (Fab, V domains shown)
VH: B1 VH with Q111F, L112F, Y114Q
VL: B1 VL
B3: M6-D09 (antibody, V domains shown)
VH: EVQLLESGGGLVQPGGSLRLSCAASGFTFSFYYMVWVRQAPGKGLEWVSVIYPSGGITVYADSVKGRFTISRDNSKNTLYLQMNSLRAEDTAVYYCARDKWAVMPPYYYYAMDVWGQGTTVTVSS
VL: DIQMTQSPSSLSASVGDRVTITCRASQSIRNYLNWYQQKPGKAPNLLIYAASTLQSGVPARFSGSGSGTDFTLTISSLQPEDFATYYCQQLSGYPHTFGQGTKLEIK
notes: also called M06-D09; 559A-M06-D09
B4: M197-G10 (Fab, V domains shown)
VH: EVQLLESGGGLVQPGGSLRLSCAASGFTFSVYAMRWVRQAPGKGLEWVSSIYPSGGKTWYADSVKGRFTISRDNSKNTLYTLQMNSLRAEDAVYYCAYRRTGIPRRDAFDIWGQGTMVTVSS
VL: DIQMTQSPSTLSASVGDRVTITCRASQSISSWLAWYQQKPGKAPNLLIYKASTLESGVPSRFSGSGSGTEFTLTISSLQPDDFATYYCQQYNTYWTFGQGTKVEIK
B5: M201-F11 (Fab, V domains shown)
VH: EVQLLESGGGLVQPGGSLRLSCAASGFTFSHYIMMWVRQAPGKGLEWVSGIYSSGGITVYADSVKGRFTISRDNSKNTLYLQMNSLRAEDTAVYYCAYRRSGIPRRDAFDIWGQGTMVTVSS
VL: B4 VL with P80Q, D81P, F83D, A84F, T85A, Y86T, C88Y, Q89C
B6: M198-A01 (Fab, V domains shown)
VH: B5 VH with H31P, I33T, M35I, G50S, Y52S, I57M, V59P, S101T
VL: B4 VL
B7: M6-D08 (Fab, V domains shown)
VH: EVQLLESGGGLVQPGGSLRLSCAASGFTFSRYHMVWVRQAPGKGLEWVSSISPSGGWTNYADSVKGRFTISRDNSKNTLYLQMNSLRAEDTAMYYCAREMATIAGQFDPWGQGTLVTVSS
VL: DIQMTQSPSSLSASVGDRVTITCRASQSISSYLNWYQQKPGKAPKLLIYGASSLQSGVPSRFSGSGSGTDFTLTISSLQPEDSATYYCQQSYTRWTFGQGTKVEIK
notes: HC as printed runs into CH1; LC amber q (WYqQK) written as Q
B8: M8-C04 (Fab, V domains shown)
VH: EVQLLESGGGLVQPGGSLRLSCAASGFTFSYYPMQWVRQAPGKGLEWVSYIYPSGGLTSYADSVKGRFTISRDNSKNTLYLQMNSLRAEDTAVYYCARLFYGSGSVGFEYWGQGTLVTVSS
VL: QSALTQPPSVSVSPGQTASITCSGDKLGDKYTSWHQQKPGQSPVLVIYQDSKRPSGIPERFSGSNSGNTATLTISGTQAMDEADYYCQAWDSSTVFGGGTRLTVL
notes: HC as printed runs into CH1
B9: M9-A03 (Fab, V domains shown)
VH: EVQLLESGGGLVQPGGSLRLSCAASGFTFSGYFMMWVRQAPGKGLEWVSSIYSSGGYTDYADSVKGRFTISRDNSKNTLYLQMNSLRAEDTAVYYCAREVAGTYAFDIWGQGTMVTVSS
VL: DIQMTQSPSSLSASLGDRVTITCRASQNIDIYLNWYQQTPGKAPKLLIYGAYNLQSGVPSRFSGSGSGTDFTLTISSLQPEDFGTYYCQQSYGTPVFGQGTKLEIK
notes: HC as printed runs into CH1
B10: M8-E06 (Fab, V domains shown)
VH: EVQLLESGGGLVQPGGSLRLSCAASGFTFSHYFMTWVRQAPGKGLEWVSSIVPSGGMTQYADSVKGRFTISRDNSKNTLYLQMNSLRAEDTAVYYCARDSYSSSWFDIWGQGTMVTVSS
VL: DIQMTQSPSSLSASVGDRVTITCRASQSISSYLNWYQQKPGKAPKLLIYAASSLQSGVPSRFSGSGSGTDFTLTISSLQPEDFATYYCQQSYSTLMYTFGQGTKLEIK
notes: HC as printed runs into CH1
B11: M6-G05 (Fab, V domains shown)
VH: EVQLLESGGGLVQPGGSLRLSCAASGFTFSRYRMVWVRQAPGKGLEWVSSIYPSGGMTAYADSVKGRFTISRDNSKNTLYLQMNSLRAEDTAVYYCARDAVGIGDAFDIWGQGTMVTVSS
VL: DIQMTQSPSSLSASVGDRVTITCRASQSISTYLNWYQLKPGKAPKLLIYNAFSMERGVPSTISGSGSGTDFTLTISSLQPEDFATYYCQQSYTTPTTFGQGTKVEIK
notes: HC as printed runs into CH1
B12: M8-G09 (Fab, V domains shown)
VH: EVQLLESGGGLVQPGGSLRLSCAASGFTFSLYEMLWVRQAPGKGLEWVSVIYPSGGYTDYADSVKGRFTISRDNSKNTLYLQMNSLRAEDMAVYYCARSFSGFGEIDYWGQGTLVTVSS
VL: DIQMTQSPSSLSASVGDTVTITCRASQGVSYYLAWFQQKPGKAPKSLIYGASSLQSGVPSKFSGSGSGTVFTLTISSLQPDDFATYYCQQYNTYPPTFGQGTRLDIK
notes: HC as printed runs into CH1
B13: M9-C08 (Fab, V domains shown)
VH: EVQLLESGGGLVQPGGSLRLSCAASGFTFSHYGMVWVRQAPGKGLEWVSYIVPSGGLTYYADSVKGRFTISRDNSKNTLYLQMNSLRAEDTAVYYCARVDYTGDGLGYWGQGTLVTVSS
VL: DIQMTQSPSSLSASVGDRVTITCRASQSISIYVNWYQQKPGKAPNLLIFAASSLQRGVPSRFSGSGSGADFTLTISSLQPEDFATYYCQQSFSTPLTFGGGTKVEIK
notes: HC as printed runs into CH1
B14: M162-A04 (Fab) (Fab, V domains shown)
VH: B5 VH with S101T
VL: B4 VL
notes: Non-germlined Fab discovered using phage display; HC as printed runs into CH1
B15: M8-H04 (Fab, V domains shown)
VH: EVQLLESGGGLVQPGGSLRLSCAASGFTFSGYWMGWVRQAPGKGLEWVSSISSSGGWTQYADSVKGRFTISRDNSKNTLYLQMNSLRAEDTATYYCARDDEIAAGGAFDIWGQGAMVTVSS
VL: DIQMTQSPSSLSASIGDRVTITCRASQYISTYLNWYEQKPGKAPKLLIYGTSSLQSGVPSRFSGSGSGTEFSLTISSLQPEDFATYYCQQSFTTPFTFGQGTKLEIK
notes: HC as printed runs into CH1
B16: M8-D05 (Fab, V domains shown)
VH: EVQLLESGGGLVQPGGSLRLSCAASGFTFSLYNMNWVRQAPGKGLEWVSSISPSGGFTDYADSVKGRFTISRDNSKNTLYLQMNSLRAEDTAVYYCARDLDLGILDYWGQGTLVTVSS
VL: DIQMTQSPSFVSASVGDRVTITCRASQDISSWLVWYQQKPGKGPKLLIYDASNLQSGVPSRFSGGGSGTHFTLTISSLQPEDFATYYCQQADGFPLTFGGGTKVEMK
notes: HC as printed runs into CH1
B17: M6-A06 (Fab, V domains shown)
VH: EVQLLESGGGLVQPGGSLRLSCAASGFTFSLYQMTWVRQAPGKGLEWVSGIWPSGGFTDYADSVKGRFTISRDNSKNTLYLQMNSLRAEDTAVYYCARVSTAVADNDYWGQGTLVTVSS
VL: DIQMTQSPSSLSASVGDSVTISCRASQSISMYLNWYQHKPGKAPKLLIYGTSSLQSGVPSRFSGSGPGGTDFTLTISSLQPEDFATYYCQQSYSAPWTFGQGTKVEIK
notes: HC as printed runs into CH1
B18: M6-D03 (Fab, V domains shown)
VH: B17 VH with L31K, Q33F, T35G, G50V, W52G, P53S, F57W, D59S
VL: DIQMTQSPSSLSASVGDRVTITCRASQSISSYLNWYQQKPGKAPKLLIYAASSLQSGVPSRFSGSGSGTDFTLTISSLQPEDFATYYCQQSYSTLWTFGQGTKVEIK
notes: HC as printed runs into CH1
B19: M9-A08 (Fab, V domains shown)
VH: EVQLLESGGGLVQPGGSLRLSCAASGFTFSAYEMWWVRQAPGKGLEWVSYIGSSGGSTSYADSVKGRFTISRDNSKNTLYLQMNSLRAEDTAVYYCTGGNSSSFDAFDIWGQGTMVTVSS
VL: DIQMTQSPSSLSASVGDRVTVTCRASQRISTYLNWYQQKPGKAPKLLISGASSLQSGVPSRFSGSGSGTDFTLTISSLQPDDFATYYCQQSYNTPRTFGQGTKVEIR
notes: HC as printed runs into CH1
B20: M160-G12 (Fab) (Fab, V domains shown)
VH: B1 VH with G100A, Q111Y, L112F
VL: DIQMTQSPSFLSASVGDRVTITCRASQGISSYLAWYQQKPGKAPKLLIYAASTLQSGVPSRFSGSGSGTEFTLTISSLQPEDFATYYCQQLNSYPLTFGGGTKVEIK
notes: HC as printed runs into CH1
B21: M6-A08 (Fab, V domains shown)
VH: EVQLLESGGGLVQPGGSLRLSCAASGFTFSPYPMQWVRQAPGKGLEWVSSISSSGGMTEYADSVKGRFTISRDNSKNTLYLQMNSLRAEDTAVYYCARDDYGGKGGAFDIWGQGTMVTVSS
VL: DIQMTQSPSSLSASVGDRVTITCRASQRISFYLNWFQQKPGKAPNLLIYGASSLQSGVPSRFSGSGSGTDFTLTISSLQPKDFGTYYCQQTFSTPNTFGQGTKLEIK
notes: HC as printed runs into CH1
B22: M161-C11 (Fab, V domains shown)
VH: EVQLLESGGGLVQPGGSLRLSCAASGFTFSDYAMKWVRQAPGKGLEWVSSISSSGGVTQYADSVKGRFTISRDNSKNTLYLQMNSLRAEDTAVYYCAREEDYSSSWYSRRFDYYYGMDVWGQGTTVTVSS
VL: QSALTQPPSVSVSPGQTASITCSGDKLGDKYVSWYQQRPGQSPVLVIYQDTKRPSGIPERFSGSNSGNTATLTISGTQAVDEADYYCQAWDSSTYVFGGGTKVTVL
notes: HC as printed runs into CH1

biological target: T1, human plasma kallikrein (human, UniProt P03952 20-390; P03952 391-638); experiment: cell-based or functional assay
T1 sequence (P03952 20-390, chain 1 of 2): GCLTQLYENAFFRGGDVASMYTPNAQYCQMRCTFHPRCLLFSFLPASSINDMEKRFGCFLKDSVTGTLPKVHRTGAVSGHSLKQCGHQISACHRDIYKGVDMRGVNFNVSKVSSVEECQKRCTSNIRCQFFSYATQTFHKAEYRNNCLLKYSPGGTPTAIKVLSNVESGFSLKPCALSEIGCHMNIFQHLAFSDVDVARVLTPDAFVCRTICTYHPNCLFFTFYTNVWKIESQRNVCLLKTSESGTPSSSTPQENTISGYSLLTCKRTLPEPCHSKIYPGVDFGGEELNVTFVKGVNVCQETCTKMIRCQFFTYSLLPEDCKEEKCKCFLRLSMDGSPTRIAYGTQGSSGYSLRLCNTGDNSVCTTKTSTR
T1 sequence (P03952 391-638, chain 2 of 2): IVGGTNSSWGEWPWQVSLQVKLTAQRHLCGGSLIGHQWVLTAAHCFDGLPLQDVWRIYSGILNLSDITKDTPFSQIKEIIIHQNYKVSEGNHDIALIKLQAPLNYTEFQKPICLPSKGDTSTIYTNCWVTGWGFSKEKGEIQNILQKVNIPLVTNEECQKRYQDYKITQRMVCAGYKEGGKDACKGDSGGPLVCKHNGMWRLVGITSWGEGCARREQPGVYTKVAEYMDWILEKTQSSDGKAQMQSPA

Going from B1 to B2, the “% inhibition at 10 nM” value falls from 93.4% to 80.4%.

biological target: T2, pKal catalytic domain Mutant 2 (human, UniProt P03952 391-638, limits assumed); experiment: enzyme inhibition, equilibrium Ki,app
T2 construct: domain: catalytic domain; Expressed in Pichia pastoris, purified by IMAC; not shown: His tag fusion
T2 sequence (P03952 other isoform, or with tags, fused parts or gaps mutant limits assumed): as the sequence (P03952 391-638, chain 2 of 2) above, with R161A, Q163A, Y165A, T168A, R170A counted along it

With B3 the “fold increase of Ki,app against the wild type catalytic domain” value was ~5 fold.

biological target: T1, human plasma kallikrein; experiment: cell-based or functional assay; remark: another data set of the same source

First: B4
Second: B5
The “% inhibition at 10 nM” value of the first is higher: 67.6% for the first, 15.7% for the second.

With B6 the “% inhibition at 10 nM” value was 13.8%.

biological target: T3, human plasma kallikrein (human, UniProt P03952 20-390; P03952 391-638); experiment: ELISA, biotinylated pKal signal over streptavidin background
T3 construct: also called pKal; Human pKal
Description: Abbreviations used: “T/B” is the ELISA signal obtained using of the “target” (biotinylated plasma kallikrein) divided by the ELISA signal of the “background” (streptavidin); both of which were coated on microtiter plates, “nd” is not determined. The symbol “q” refers to the amber suppressible stop codon (TAG), which is translated as glutamine (Q) in strains of E. coli such as the TG1 cells that were used to express the Fab fragments.
T3 sequence (P03952 20-390, chain 1 of 2): as the sequence (P03952 20-390, chain 1 of 2) above
T3 sequence (P03952 391-638, chain 2 of 2): as the sequence (P03952 391-638, chain 2 of 2) above

Going from B7 to B8, the “ELISA (T/B)” value rises from 16 T/B to 44.7 T/B.

Going from B9 to B10, the “ELISA (T/B)” value falls from 14.4 T/B to 8.8 T/B.

First: B11
Second: B12
The “ELISA (T/B)” value of the first is lower: 18.5 T/B for the first, 28.2 T/B for the second.

Compared with B13, B14 is higher in “ELISA (T/B)” value: 10.9 T/B for the first, 11.4 T/B for the second.

First: B15
Second: B16
The “ELISA (T/B)” value of the first is lower: 3.3 T/B for the first, 11.9 T/B for the second.

Going from B17 to B18, the “ELISA (T/B)” value rises from 11.7 T/B to 15.5 T/B.

Going from B19 to B20, the “ELISA (T/B)” value rises from 5.5 T/B to 38.3 T/B.

First: B21
Second: B22
The “ELISA (T/B)” value of the first is lower: 23.4 T/B for the first, 41.8 T/B for the second.
